Experimental data taken from publication PMC6591005 (Immunity, 2019).

Key:
Conditions in all cases: both partners purified
[1] = biological target: GII.4.2002 P domain (Human norovirus GII.4 2002 Farmington …, UniProt R4I4P2, strain); test: crystal structure
[2] = biological target: T1, GII.4 1997 Virus like particles (Human norovirus GII.4 1997 (US95_96), …, UniProt R4I4R2, strain); test: ELISA; EIA: plates coated with VLP at 0.25 μg/ml in PBS for 4 h, blocked in 5% dry milk in PBS-0.05% Tween-20; two-fold serial dilutions of mAb at 37°C; anti-human IgG-HRP; less than 0.2 OD at 2 μg/ml scored as negative
T1 construct: copies: 180

[3] = biological target: T2, GII.4 2002 Virus like particles (Human norovirus GII.4 2002 Farmington …, UniProt R4I4P2, strain); test: as above
T2 construct: copies: 180

[4] = biological target: T3, GII.4 2006b Virus like particles (Human norovirus GII.4 2006b …, UniProt R4I3T2, strain); test: as above
T3 construct: copies: 180

[5] = biological target: T4, GII.4 2012 Virus like particles (Human norovirus GII.4 Sydney 2012, …, UniProt K4LM89, strain); test: as above
T4 construct: copies: 180

[6] = biological target: T5, GII.4 2015 Virus like particles (Human norovirus GII.P16-GII.4 Sydney …, strain); test: as above
T5 construct: copies: 180
T5 chain: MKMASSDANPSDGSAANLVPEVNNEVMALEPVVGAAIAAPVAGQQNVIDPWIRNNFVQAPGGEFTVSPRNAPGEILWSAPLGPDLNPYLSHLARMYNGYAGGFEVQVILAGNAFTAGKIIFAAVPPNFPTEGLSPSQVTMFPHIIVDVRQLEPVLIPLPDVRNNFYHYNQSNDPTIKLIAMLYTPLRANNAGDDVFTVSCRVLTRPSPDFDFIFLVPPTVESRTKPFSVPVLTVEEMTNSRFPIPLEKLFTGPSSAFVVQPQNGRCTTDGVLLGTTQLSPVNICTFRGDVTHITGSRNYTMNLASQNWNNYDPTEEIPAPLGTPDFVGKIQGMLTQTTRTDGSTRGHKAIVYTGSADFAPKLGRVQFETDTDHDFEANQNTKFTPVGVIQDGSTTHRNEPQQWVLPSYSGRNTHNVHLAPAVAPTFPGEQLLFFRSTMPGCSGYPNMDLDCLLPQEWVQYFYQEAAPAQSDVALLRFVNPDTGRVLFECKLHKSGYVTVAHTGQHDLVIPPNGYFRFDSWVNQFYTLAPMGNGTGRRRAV

[7] = biological target: GII.2 Virus like particles (Human norovirus GII.2 (Snow Mountain …, UniProt Q80RD6, strain)); test: as above
[8] = biological target: GII.17 Virus like particles (Human norovirus GII.17, GenBank …, UniProt A0A0E3X5I8, strain); test: as above
[9] = biological target: soluble GII.4 P domain from the 2006 pandemic strain (Human norovirus GII.4 2006, taken as …, UniProt R4I3T2, strain); test: co-purification of the complex; Fab of A1227 purified in complex with soluble GII.4 P domains, screened for crystallization
[10] = biological target: soluble GII.4 P domain from the 2009 pandemic strain (Human norovirus GII.4 2009 New Orleans, …, UniProt D3YBZ4, strain); test: as above
[11] = biological target: soluble GII.4 P domain from the 2012 pandemic strain (Human norovirus GII.4 Sydney 2012, …, UniProt K4LM89, strain); test: as above

Measured: binding result

B1: A1431 Fab (Fab, V domains shown)
VH: QVQLVQSGGGLVQPGGSLRLSCAASGFAFSNHGMHWVRQAPGKGLEWLSYISGSTGAIHYANSVKGRFTISRDNARNSLDLQMNSLGDEDTAVYYCARDGPRPDGTGYAGPSNDYWGQGTLVSVSS
VL: EIVLTQSPASLSLSPGERATLSCKASRSISIYLAWYQQKPGQAPRLLIYDASYRAIGIPARFSGSGSGTDFTLTISNLEPEDFAVYYCQHRSSWPALTFGGGTKVEIK
binds: [1]

B2: A1227 (recombinant IgG1) (antibody, V domains shown)
VH: QVQLVQSGGGMVQPGGSLSLSCAASGFTLSNYAMTWVRQAPGKGLEWVSSIGGSGGTTYYADSVKGRFTISRDSSMNTLYLQMSNLRAGDTAVYYCAKDKTRTLRLGYSGMDVWGQGTTVTVSS
VL: DIRLTQSPSSLSASVGDRVTITCRASQSISSYLNWYQQKPGKAPDLLIYGASSLQSGVPSRFSGSGSGTDFTLTISSLQPEDFGNYYCQQSFSTPRTFGQGTKVELK
not listed: [1] | [9] | [10] | [11]
binds: all other assays above

B3: A1227 Fab (Fab, V domains shown)
VH: B2 VH
VL: B2 VL
notes: also called Fab A1227
binds: [9] | [10] | [11]
